What was measured:
IL-7Rα subunit [1] = target: T1, IL-7Rα subunit (Homo sapiens, UniProt P16871); test: Phage competitive binding assay characterizing the IL-7Rα ligand binding site; conditions: for Competition with Phage Clone SEQ ID NO: 5 (Family 1) for binding to the IL-7Rα subunit: phage clone 5, immobilized IL-7Rα ECD; for Competition with Phage Clone SEQ ID NO: 43 (Family 3A) for binding to the IL-7Rα subunit: phage clone 43, immobilized IL-7Rα ECD; for Competition with Phage Clone SEQ ID NO: 104 (Family 3B) for binding to the IL-7Rα subunit: phage clone 104, immobilized IL-7Rα ECD; for Competition with Phage Clone SEQ ID NO: 313 (Family 2) for binding to the IL-7Rα subunit: phage clone 313, immobilized IL-7Rα ECD
IL-7Rα subunit [2] = target: T1, IL-7Rα subunit; test: Competition of IL-7Rα ligands with IL-7 for binding to IL-7Rα
Rγc subunit = target: T2, Rγc subunit (Homo sapiens, UniProt P31785); test: Alanine scan competition binding assay, binding to Rγc subunit; conditions: alanine scan peptides
T2 construct: purchased ACRObiosystems, Inc. ILG-H5256
T2 sequence (P31785 23-254): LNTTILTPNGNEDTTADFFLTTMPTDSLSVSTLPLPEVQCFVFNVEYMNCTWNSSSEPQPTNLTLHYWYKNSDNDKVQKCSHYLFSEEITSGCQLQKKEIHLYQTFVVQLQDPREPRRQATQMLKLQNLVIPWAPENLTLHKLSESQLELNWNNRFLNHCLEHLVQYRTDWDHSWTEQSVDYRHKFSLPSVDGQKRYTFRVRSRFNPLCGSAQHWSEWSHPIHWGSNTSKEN

T1 sequence (P16871 21-236): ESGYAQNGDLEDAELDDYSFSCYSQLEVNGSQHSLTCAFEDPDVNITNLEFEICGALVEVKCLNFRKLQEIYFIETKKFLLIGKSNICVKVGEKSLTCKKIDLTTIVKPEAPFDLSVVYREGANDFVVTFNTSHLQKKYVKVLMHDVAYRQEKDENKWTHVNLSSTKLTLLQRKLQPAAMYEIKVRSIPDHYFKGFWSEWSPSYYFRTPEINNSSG

| Molecule | Competition with Phage Clone SEQ ID NO: 5 (Family 1) for binding to the IL-7Rα subunit (IL-7Rα subunit [1]) | Competition with Phage Clone SEQ ID NO: 43 (Family 3A) for binding to the IL-7Rα subunit (IL-7Rα subunit [1]) | Competition with Phage Clone SEQ ID NO: 104 (Family 3B) for binding to the IL-7Rα subunit (IL-7Rα subunit [1]) | Competition with Phage Clone SEQ ID NO: 313 (Family 2) for binding to the IL-7Rα subunit (IL-7Rα subunit [1]) | Competitive binding with IL-7 binding to IL-7Rα (IL-7Rα subunit [2]) | Competition with Phage Clone SEQ ID NO: 965 (N/A) for binding to the IL-7Rα subunit (IL-7Rα subunit [1]; phage clone 965, immobilized IL-7Rα ECD) | IC50 (Rγc subunit) |
| --- | --- | --- | --- | --- | --- | --- | --- |
| Q C I H W D I E T L L S C V [SEQ ID NO: 5] | + (IL-7Rα ligand competes with phage binding.) | + (IL-7Rα ligand competes with phage binding.) | + (IL-7Rα ligand competes with phage binding.) | + (IL-7Rα ligand competes with phage binding.) | do not bind competitively | – | – |
| Y M A C S S G L S L C R L S [SEQ ID NO: 104] | + (IL-7Rα ligand competes with phage binding.) | + (IL-7Rα ligand competes with phage binding.) | + (IL-7Rα ligand competes with phage binding.) | + (IL-7Rα ligand competes with phage binding.) | do not bind competitively | – | – |
| G G V P W C T L D P G S L Q C A W F [SEQ ID NO: 313] | + (IL-7Rα ligand competes with phage binding.) | + (IL-7Rα ligand competes with phage binding.) | + (IL-7Rα ligand competes with phage binding.) | + (IL-7Rα ligand competes with phage binding.) | do not bind competitively | – | – |
| QCVHWDLDTLFGCIREQLEL [SEQ ID NO: 146] | +^1 (IL-7Rα ligand competes with phage binding.) | + (IL-7Rα ligand competes with phage binding.) | + (IL-7Rα ligand competes with phage binding.) | + (IL-7Rα ligand competes with phage binding.) | do not bind competitively | 0^2 | – |
| CC(C)C[C@@H]1NC(=O)[C@H](CCC(=O)O)NC(=O)[C@H](C(C)C)NC(=O)CNC(=O)[C@H](CCC(=O)O)NC(=O)[C@H](C)NC(=O)[C@H](CC(=O)O)NC(=O)[C@H](CCC(N)=O)NC(=O)[C@@H](NC(=O)[C@@H](NC(=O)[C@@H](NC(=O)CNC(=O)CN)C(C)C)C(C)C)CSSC[C@@H](C(=O)N[C@@H](Cc2c[nH]c3ccccc23)C(=O)N[C@@H](CCC(N)=O)C(=O)NCC(=O)NCC(=O)O)NC1=O [SEQ ID NO: 1034, G G V V C Q D A E G V E L C W Q G G] | – | – | – | – | – | – | < 2000 nM |
| CC(C)C[C@@H]1NC(=O)[C@H](CCC(=O)O)NC(=O)[C@H](C(C)C)NC(=O)[C@H](C)NC(=O)[C@H](CCC(=O)O)NC(=O)[C@H](Cc2c[nH]c3ccccc23)NC(=O)[C@H](CC(=O)O)NC(=O)[C@H](CCC(N)=O)NC(=O)[C@@H](NC(=O)[C@@H](NC(=O)[C@@H](NC(=O)CNC(=O)CN)C(C)C)C(C)C)CSSC[C@@H](C(=O)N[C@@H](Cc2c[nH]c3ccccc23)C(=O)N[C@@H](CCC(N)=O)C(=O)NCC(=O)NCC(=O)O)NC1=O [SEQ ID NO: 1036, G G V V C Q D W E A V E L C W Q G G] | – | – | – | – | – | – | < 100 nM |
| CC(C)C[C@@H]1NC(=O)[C@H](CCC(=O)O)NC(=O)[C@H](C(C)C)NC(=O)CNC(=O)[C@H](CCC(=O)O)NC(=O)[C@H](Cc2c[nH]c3ccccc23)NC(=O)[C@H](C)NC(=O)[C@H](CCC(N)=O)NC(=O)[C@@H](NC(=O)[C@@H](NC(=O)[C@@H](NC(=O)CNC(=O)CN)C(C)C)C(C)C)CSSC[C@@H](C(=O)N[C@@H](Cc2c[nH]c3ccccc23)C(=O)N[C@@H](CCC(N)=O)C(=O)NCC(=O)NCC(=O)O)NC1=O [SEQ ID NO: 1033, G G V V C Q A W E G V E L C W Q G G] | – | – | – | – | – | – | < 50 nM |
| CC(C)C[C@@H]1NC(=O)[C@H](CCC(=O)O)NC(=O)[C@H](C(C)C)NC(=O)CNC(=O)[C@H](CCC(=O)O)NC(=O)[C@H](Cc2c[nH]c3ccccc23)NC(=O)[C@H](CC(=O)O)NC(=O)[C@H](C)NC(=O)[C@@H](NC(=O)[C@@H](NC(=O)[C@@H](NC(=O)CNC(=O)CN)C(C)C)C(C)C)CSSC[C@@H](C(=O)N[C@@H](Cc2c[nH]c3ccccc23)C(=O)N[C@@H](CCC(N)=O)C(=O)NCC(=O)NCC(=O)O)NC1=O [SEQ ID NO: 1032, G G V V C A D W E G V E L C W Q G G] | – | – | – | – | – | – | < 100 nM |
| V Y C A E I G E Y R V C R Q [SEQ ID NO: 43] | + (IL-7Rα ligand competes with phage binding.) | + (IL-7Rα ligand competes with phage binding.) | + (IL-7Rα ligand competes with phage binding.) | + (IL-7Rα ligand competes with phage binding.) | do not bind competitively | – | – |
